Common to all, as to experiment: SPR, antibody captured, C2 as analyte;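 also: biacore SPR at 37 °C, anti-C2 mAbs captured via goat anti-human IgG on CM5 chips, double-referenced sensorgrams fit to a 1:1 kinetic or steady-state model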
(In general: In SPR one partner is held on a chip, and binding of the other changes the refractive index at the surface.)

The target of one experiment is T1, human C2 N380A (human, UniProt P06681 21-752).
T1 sequence: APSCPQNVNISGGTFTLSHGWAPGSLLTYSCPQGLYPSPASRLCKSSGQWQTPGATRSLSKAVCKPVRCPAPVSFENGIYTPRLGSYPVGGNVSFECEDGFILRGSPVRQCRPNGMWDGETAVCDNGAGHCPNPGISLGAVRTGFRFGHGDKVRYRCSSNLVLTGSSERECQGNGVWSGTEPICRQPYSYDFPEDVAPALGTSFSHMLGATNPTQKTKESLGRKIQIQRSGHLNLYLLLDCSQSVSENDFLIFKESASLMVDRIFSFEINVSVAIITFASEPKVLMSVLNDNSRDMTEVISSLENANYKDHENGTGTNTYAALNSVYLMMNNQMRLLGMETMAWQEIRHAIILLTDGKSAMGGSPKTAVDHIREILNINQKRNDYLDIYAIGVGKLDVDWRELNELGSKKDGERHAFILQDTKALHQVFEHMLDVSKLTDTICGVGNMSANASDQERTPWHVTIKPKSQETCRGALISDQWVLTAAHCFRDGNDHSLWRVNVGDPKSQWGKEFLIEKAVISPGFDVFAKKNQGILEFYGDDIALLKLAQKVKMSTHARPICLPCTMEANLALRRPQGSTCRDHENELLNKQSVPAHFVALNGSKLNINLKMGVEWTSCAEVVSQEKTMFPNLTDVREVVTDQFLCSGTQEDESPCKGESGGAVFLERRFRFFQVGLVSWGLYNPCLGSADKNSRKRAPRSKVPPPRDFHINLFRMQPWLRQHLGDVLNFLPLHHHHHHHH

In a further experiment the target is T2, human C2 I272A (human, UniProt P06681 21-752).
T2 sequence: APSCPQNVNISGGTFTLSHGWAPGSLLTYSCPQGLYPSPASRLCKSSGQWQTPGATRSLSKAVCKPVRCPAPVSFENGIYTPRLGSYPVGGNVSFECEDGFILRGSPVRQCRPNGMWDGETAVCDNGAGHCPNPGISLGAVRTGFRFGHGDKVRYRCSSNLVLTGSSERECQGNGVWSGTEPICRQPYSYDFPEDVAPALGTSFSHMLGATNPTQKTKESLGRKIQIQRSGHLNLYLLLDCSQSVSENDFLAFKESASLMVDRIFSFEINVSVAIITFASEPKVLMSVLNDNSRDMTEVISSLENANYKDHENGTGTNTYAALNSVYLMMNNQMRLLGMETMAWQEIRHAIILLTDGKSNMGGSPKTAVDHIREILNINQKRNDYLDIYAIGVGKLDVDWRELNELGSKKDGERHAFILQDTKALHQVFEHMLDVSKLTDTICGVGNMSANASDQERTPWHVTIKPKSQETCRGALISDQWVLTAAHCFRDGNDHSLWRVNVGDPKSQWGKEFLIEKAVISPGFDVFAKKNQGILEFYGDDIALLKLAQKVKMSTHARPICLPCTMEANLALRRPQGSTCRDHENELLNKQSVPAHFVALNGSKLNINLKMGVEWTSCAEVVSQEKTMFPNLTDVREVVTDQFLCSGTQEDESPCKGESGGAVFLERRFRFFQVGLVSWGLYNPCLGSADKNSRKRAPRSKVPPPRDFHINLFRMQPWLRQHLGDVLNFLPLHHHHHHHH

Another experiment has as its target T3, human C2 H435A (human, UniProt P06681 21-752).
T3 sequence: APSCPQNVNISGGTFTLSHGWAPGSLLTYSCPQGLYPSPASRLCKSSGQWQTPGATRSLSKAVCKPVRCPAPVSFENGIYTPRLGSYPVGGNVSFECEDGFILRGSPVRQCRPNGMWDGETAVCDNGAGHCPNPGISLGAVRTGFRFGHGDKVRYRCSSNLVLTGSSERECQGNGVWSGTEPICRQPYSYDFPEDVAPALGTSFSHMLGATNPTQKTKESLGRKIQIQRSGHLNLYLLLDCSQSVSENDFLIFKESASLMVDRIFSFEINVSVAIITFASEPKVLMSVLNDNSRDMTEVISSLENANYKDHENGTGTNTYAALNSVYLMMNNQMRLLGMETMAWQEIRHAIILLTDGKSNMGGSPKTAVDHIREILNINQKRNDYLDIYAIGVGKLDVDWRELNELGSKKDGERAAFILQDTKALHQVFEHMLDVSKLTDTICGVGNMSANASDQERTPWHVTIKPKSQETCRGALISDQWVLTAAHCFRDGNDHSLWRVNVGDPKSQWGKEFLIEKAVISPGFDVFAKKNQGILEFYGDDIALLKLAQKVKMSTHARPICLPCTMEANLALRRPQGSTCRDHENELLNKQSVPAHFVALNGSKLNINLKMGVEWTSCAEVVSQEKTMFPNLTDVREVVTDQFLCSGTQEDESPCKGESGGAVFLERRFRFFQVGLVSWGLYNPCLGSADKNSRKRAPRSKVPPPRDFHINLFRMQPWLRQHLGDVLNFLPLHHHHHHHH

The target of another experiment is T4, human C2 L439A (human, UniProt P06681 21-752).
T4 sequence: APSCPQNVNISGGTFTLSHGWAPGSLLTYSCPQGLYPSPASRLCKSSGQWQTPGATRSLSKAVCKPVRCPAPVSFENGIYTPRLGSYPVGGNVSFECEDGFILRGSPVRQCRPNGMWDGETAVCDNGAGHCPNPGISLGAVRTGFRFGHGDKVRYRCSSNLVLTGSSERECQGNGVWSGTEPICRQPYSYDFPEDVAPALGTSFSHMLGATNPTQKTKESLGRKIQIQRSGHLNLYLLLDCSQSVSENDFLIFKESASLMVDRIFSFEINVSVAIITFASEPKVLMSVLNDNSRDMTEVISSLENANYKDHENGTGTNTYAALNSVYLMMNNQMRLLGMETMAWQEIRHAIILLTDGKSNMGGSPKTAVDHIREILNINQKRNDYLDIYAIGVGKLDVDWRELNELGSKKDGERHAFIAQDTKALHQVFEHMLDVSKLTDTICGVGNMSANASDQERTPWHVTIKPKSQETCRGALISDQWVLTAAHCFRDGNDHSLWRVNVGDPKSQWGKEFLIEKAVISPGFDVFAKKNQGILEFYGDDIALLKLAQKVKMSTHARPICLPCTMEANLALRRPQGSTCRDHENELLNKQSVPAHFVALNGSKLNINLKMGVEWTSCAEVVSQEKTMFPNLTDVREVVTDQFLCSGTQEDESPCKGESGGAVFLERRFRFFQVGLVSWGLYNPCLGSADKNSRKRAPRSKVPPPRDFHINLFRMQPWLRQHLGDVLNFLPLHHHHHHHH

B1: RF16-226 (antibody, human IgG4 S228P, lambda)
heavy: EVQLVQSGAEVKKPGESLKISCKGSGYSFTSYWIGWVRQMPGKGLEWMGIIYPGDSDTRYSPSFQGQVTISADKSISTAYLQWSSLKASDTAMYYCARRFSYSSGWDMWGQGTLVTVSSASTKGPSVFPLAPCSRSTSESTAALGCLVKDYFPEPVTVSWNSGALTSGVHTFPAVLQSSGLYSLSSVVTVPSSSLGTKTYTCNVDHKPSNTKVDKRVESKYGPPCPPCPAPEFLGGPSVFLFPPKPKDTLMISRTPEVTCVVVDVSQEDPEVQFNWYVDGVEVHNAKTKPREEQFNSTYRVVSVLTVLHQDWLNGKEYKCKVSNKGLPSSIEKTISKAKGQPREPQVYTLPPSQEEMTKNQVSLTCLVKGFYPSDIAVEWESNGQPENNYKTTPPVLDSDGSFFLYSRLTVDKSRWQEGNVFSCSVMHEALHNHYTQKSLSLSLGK
light: SYELTQPPSVSVSPGQTARITCSGDALTSKYVAWYQQKSGLAPLLVIYEDTRRPSGIPAKFSGSSSGSVATLTISGAHGDDEADYYCYSTDASGHQRVFGGGTKLTVLSQPKAAPSVTLFPPSSEELQANKATLVCLISDFYPGAVTVAWKADGSPVKAGVETTKPSKQSNNKYAASSYLSLTPEQWKSHRSYSCQVTHEGSTVEKTVAPTECS
notes: pH-dependent anti-C2 antibody from a phage display library; also called WT
With B1, the Kd with human C2 N380A worked out at 15.1 nM; in the experiment with human C2 I272A it was 10.4 nM; in the experiment with human C2 H435A, 24.3 nM; with human C2 L439A it was 118 nM.

One may read the Kd as the equilibrium constant for the complex coming apart. A lower Kd goes with tighter binding.

Values taken from patent US20220332804A1 (CSL INNOVATION, published 2022).
